Reference: US9211312 (VOLUTION IMMUNO PHARMACEUTICALS, dated 2015)

Columns and labels:
[1] = target: mouse complement C5 (in mouse serum) (mouse, UniProt P06684 19-1680); experiment: cell-based or functional assay
[2] = target: rat complement C5 (in rat serum) (rat, UniProt P08650 19-1681); experiment: cell-based or functional assay
[3] = target: human complement C5 (in human serum) (human, UniProt P01031 19-1676); experiment: cell-based or functional assay
complement C5 = target: T1, complement C5 (Homo sapiens (Human), UniProt P01031 19-673; P01031 678-1676, The beta and alpha chains of native C5 are linked by a disulfide bond. The native protein is glycosylated.); experiment: direct binding to C5 (FIG. 4C); method not described
T1 construct: also called complement protein C5
T1 sequence (P01031 19-673 limits assumed, form in doubt, chain 1 of 2): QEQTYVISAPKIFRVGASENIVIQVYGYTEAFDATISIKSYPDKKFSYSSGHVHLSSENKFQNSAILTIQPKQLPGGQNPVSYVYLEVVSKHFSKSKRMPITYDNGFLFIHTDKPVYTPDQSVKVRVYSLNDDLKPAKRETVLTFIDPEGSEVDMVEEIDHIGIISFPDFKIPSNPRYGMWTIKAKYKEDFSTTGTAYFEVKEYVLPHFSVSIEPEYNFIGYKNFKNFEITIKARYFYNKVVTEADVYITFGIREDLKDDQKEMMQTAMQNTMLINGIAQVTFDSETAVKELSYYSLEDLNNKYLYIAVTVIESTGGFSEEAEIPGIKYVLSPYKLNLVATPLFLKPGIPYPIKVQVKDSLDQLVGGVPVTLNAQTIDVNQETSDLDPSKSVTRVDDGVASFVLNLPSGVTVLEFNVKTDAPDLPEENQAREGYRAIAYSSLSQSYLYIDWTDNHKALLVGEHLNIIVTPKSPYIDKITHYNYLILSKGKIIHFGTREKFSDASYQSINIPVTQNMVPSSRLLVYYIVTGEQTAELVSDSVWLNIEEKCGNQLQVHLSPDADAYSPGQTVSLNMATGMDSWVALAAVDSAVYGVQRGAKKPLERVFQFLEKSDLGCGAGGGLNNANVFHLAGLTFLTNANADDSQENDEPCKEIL
T1 sequence (P01031 678-1676 limits assumed, form in doubt, chain 2 of 2): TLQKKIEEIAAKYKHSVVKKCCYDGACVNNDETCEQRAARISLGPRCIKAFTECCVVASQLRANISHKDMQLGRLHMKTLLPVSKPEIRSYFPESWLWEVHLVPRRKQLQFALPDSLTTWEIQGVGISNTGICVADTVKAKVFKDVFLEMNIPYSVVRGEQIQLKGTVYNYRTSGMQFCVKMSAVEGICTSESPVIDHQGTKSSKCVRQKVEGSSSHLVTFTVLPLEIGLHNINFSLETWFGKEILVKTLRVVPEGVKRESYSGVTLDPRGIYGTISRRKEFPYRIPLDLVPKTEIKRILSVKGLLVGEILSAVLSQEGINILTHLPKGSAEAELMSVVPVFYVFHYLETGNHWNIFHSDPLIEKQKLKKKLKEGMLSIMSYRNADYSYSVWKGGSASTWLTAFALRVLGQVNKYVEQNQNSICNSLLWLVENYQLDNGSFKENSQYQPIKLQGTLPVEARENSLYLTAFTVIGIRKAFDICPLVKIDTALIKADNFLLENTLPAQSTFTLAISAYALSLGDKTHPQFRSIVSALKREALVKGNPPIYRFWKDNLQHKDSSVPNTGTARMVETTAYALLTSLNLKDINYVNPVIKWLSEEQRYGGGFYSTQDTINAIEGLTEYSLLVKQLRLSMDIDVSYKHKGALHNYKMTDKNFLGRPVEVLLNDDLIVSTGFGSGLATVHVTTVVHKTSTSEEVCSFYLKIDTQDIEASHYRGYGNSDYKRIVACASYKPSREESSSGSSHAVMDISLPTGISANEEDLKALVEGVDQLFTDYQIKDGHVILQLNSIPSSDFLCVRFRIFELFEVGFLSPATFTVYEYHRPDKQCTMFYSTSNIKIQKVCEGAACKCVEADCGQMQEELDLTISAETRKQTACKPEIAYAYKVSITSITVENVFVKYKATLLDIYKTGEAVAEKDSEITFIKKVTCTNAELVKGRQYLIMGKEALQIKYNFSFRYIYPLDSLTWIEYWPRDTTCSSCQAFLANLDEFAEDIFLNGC

rat complement C5 (in rat serum), sequence (P08650 19-1681 limits assumed): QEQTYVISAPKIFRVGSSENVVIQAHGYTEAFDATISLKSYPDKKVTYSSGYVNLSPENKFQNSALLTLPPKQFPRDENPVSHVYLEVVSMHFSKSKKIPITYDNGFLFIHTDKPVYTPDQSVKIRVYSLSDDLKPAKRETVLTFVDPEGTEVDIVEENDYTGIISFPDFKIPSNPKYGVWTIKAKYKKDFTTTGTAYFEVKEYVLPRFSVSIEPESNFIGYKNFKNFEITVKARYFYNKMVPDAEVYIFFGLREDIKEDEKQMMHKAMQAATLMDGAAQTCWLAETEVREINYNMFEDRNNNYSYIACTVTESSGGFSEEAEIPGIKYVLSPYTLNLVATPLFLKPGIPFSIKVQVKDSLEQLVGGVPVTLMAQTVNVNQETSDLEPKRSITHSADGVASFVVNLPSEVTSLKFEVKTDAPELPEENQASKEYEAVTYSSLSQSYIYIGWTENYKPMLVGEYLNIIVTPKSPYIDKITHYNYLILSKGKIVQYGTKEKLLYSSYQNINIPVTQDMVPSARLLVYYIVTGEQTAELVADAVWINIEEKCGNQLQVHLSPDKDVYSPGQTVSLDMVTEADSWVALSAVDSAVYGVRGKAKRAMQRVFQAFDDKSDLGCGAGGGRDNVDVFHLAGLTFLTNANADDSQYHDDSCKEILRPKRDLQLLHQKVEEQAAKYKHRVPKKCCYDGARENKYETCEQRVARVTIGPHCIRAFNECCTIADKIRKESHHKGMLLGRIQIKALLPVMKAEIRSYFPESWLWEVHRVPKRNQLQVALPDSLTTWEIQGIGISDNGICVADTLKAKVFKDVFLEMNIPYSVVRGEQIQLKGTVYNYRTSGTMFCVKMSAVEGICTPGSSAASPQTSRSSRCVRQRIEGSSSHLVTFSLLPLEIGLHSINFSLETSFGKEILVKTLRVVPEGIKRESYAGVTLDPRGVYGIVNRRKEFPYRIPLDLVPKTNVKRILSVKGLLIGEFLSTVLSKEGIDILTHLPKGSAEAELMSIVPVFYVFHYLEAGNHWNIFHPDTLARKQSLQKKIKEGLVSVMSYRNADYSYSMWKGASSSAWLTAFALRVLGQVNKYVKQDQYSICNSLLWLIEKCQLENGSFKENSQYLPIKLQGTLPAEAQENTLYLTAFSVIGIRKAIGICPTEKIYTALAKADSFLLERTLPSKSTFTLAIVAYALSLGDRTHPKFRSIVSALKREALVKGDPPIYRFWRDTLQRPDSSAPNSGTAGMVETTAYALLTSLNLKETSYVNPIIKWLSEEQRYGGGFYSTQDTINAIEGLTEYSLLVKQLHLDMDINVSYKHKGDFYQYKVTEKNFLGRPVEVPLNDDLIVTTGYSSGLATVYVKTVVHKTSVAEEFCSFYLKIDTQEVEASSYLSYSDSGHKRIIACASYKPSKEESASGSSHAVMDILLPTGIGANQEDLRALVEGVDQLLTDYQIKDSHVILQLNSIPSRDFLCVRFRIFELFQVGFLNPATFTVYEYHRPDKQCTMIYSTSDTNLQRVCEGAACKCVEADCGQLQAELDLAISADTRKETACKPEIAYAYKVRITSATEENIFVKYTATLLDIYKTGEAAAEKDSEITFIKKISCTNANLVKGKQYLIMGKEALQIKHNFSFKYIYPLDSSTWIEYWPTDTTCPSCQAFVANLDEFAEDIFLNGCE
mouse complement C5 (in mouse serum), sequence (P06684 19-1680 limits assumed): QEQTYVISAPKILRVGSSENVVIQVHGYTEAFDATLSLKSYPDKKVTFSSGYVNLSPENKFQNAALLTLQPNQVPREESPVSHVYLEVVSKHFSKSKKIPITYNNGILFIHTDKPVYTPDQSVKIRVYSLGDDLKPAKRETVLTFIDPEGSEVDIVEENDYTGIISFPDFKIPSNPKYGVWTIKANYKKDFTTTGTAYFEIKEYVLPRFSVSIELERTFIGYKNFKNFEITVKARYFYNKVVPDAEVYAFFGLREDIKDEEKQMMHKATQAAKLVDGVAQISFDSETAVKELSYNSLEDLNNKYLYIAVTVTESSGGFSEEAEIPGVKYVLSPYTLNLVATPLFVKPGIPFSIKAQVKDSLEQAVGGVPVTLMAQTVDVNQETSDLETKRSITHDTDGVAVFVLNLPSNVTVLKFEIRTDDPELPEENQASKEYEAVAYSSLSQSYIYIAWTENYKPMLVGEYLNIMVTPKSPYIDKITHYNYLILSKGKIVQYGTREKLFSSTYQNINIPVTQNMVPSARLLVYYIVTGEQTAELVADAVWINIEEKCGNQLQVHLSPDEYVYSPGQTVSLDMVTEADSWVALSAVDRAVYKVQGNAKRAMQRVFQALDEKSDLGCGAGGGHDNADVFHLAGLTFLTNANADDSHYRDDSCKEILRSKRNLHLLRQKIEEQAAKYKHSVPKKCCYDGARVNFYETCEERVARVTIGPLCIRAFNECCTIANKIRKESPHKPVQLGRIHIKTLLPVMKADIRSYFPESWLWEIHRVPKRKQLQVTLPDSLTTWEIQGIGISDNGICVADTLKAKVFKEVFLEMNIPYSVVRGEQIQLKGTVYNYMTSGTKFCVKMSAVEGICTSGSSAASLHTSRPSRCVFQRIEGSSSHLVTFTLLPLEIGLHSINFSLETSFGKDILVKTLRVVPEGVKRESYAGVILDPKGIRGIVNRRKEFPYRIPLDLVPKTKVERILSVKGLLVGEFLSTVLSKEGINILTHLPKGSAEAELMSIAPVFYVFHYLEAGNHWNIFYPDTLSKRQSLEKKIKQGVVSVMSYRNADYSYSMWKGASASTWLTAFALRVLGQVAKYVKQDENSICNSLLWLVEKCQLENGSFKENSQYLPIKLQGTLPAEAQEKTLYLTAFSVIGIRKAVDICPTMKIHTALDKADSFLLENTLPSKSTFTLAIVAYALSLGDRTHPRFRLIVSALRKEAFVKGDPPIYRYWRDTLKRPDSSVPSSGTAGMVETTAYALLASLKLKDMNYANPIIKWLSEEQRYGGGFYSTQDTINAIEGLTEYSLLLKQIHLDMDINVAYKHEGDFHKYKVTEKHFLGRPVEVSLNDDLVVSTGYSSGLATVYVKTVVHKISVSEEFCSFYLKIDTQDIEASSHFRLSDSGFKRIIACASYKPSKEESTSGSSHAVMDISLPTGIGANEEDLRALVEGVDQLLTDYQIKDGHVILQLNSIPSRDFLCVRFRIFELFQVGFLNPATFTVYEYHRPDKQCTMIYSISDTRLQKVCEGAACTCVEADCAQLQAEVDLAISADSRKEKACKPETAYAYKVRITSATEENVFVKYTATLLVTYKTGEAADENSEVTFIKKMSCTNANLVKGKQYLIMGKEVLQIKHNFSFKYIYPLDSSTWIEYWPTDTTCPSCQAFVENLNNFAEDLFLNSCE

B1: EV576 protein, native, purified from salivary gland extracts of the soft tick Ornithodoros moubata (other)
chain: DSESDCTGSEPVDAFQAFSEGKEAYVLVRSTDPKARDCLKGEPAGEKQDNTLPVMMTFKNGTDWASTDWTFTLDGAKVTATLGNLTQNREVVYDSQSHHCHVDKVEKEVPDYEMWMLDAGGLEVEVECCRQKLEELASGRNQMYPHLKDC
~20 µg/mL: IC50, binding of C5 and prevention of its cleavage by C5 convertase in serum [1] | IC50, binding of C5 and prevention of its cleavage by C5 convertase in serum [2] | IC50, binding of C5 and prevention of its cleavage by C5 convertase in serum [3] | IC50 (complement C5)
